Experimental data published in the nanobody polyreactivity screen of Harvey et al. (2022).

test: yeast display, Sf9 membrane polyspecificity reagent, FACS + sequencing; frameworks hold sequencing errors
Outline: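 A nanobody's polyreactivity label depends on the gate it was sorted from. Yeast display cells were stained with 10% biotinylated, detergent-solubilized Sf9 membrane reagent for 1 hour at 4 °C, enriched on streptavidin microbeads and sorted by FACS. The low and high (top ~1%) gates were set on anti-HA fluorescence for expression and streptavidin fluorescence for reagent binding.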

Q: With “QVQLVESGGGLVQAGGSLRLSCAASGSTFYYYTMGCYRQAPGKEREFVAAITRSGGSTYYADSVKGRFTISRDNAKNTVYLQMNSLKPEDTAVYYCAATRQRVKSEYWGQGTQVTVSS” as the sequence, how does the “polyreactivity (PSR sort gate)” value read?
A: low polyreactivity

Q: For “QVQLVESGGGLVQAGGSLRLSCAASGSTFYYYTMGWYRQAPGKEREFVAAITRSGGSTYYADSVKGRFTISRDNSKNTVYFQMNSLKPEDTAVYYCNVDGTSSSPFVQKHKEMDYWGQGTQVTVSS”, which “polyreactivity (PSR sort gate)” value is on record?
A: low polyreactivity

Q: For “QVQLVESGGGLVQAGGSLRLSCAASGSTFYYYVMGWYRQAPGKERELVATITSGGSTNYADSVKGRFTISRDNAKNTVYLQMNSLKPEDTAVYYCAADWYLIIARSRPTLDYDYWGQGTQVTVSS”, which “polyreactivity (PSR sort gate)” value is on record?
A: low polyreactivity

Q: With “QVQLVESGGGLVQAGGSLRLSCAASGSTIAGNAMGWYRQAPGKERELVAVITRGGSTNYADSVKGRFTISRDNAKNTVSLQMNSLKPEDTAVYYCARYRFLLDYWRGGYYWGQGTQVTVSS” as the sequence, how does the “polyreactivity (PSR sort gate)” value read?
A: high polyreactivity

Q: For “QVQLVESGGGLVQAGGSLRLSCAASGSTIDGYAKGWYTQAPGKEREFVAAISFSSASTYYADSVKGRFTISSDNAKNTFYLQMNSLIPEDTAVYDCAASYKGLWHGDYDYWGQGTQVTVSS”, which “polyreactivity (PSR sort gate)” value is on record?
A: low polyreactivity

Q: With “QVQLVESGGGLVQAGGSLRLSCAASGSTIEPYAMGWYRQAPGKEREFVAVITLSGGTTYYADSVKGRFTISRDNAKNTVYLQMHSLKPEDTAVYYCNAQYRKARVDEYYYWGQGTQVTVSS” as the sequence, how does the “polyreactivity (PSR sort gate)” value read?
A: high polyreactivity

Q: Which “polyreactivity (PSR sort gate)” value does the source give for “QVQLVESGGGLVQAGGSLRLSCAASGSTIFENVMGWYRQAPGKEREFVAAINTSGGSTYYADSVKGRFTISRDNAKNTVYLQMNSLKPEDTAVYYCARDSYWEMDYWGQGTQVSVSS” here?
A: low polyreactivity

Q: For “QVQLVESGGGLVQAGGSLRLSCAASGSTIGFYTMGWYRQAPGKERELVATISYSGGDTYYADSVKGRFTISRDNAKNTVYLQMNSLKPEDTAVYYCAADLGDYVTTYSWLDSWGQGTQVTVSS”, which “polyreactivity (PSR sort gate)” value is on record?
A: low polyreactivity

Q: For “QVQLVESGGGLVQAGGSLRLSCAASGSTIGRYTMGWYRQAPGKERELVAAITGSGAGTYYADSVKGRFTISRDNAKNTVYLQMNRLKPEDTAVYYCNTVFRGGQFRYVRGVKYGYWGQGTQVTVSS”, which “polyreactivity (PSR sort gate)” value is on record?
A: high polyreactivity

Q: For “QVQLVESGGGLVQAGGSLRLSCAASGSTIGSYAMGWYRQAPGKERELVAVITGGGDTNYADSVKGRFTISRDNAKNTVYLQMNSLKPEDTAVYYCAAEGSFYRYHVGSDYWGQGTQLTVSS”, which “polyreactivity (PSR sort gate)” value is on record?
A: low polyreactivity

Q: Which “polyreactivity (PSR sort gate)” value does the source give for “QVQLVESGGGLVQAGGSLRLSCAASGSTIGYNAMGWYRQAPGKERELVAAISGSGTDTRYADSVKGRFTISRDNAKNTFYLQMNSRNPEDTAVYYCAVSVVYRGSKRVRQNPMEYWGQGTQVTVSS” here?
A: high polyreactivity

Q: Which “polyreactivity (PSR sort gate)” value does the source give for “QVQLVESGGGLVQAGGSLRLSCAASGSTILTYVMGWYRQAPGKERELVAAISYSGGRSYYADSVKGRFTISRDTAKNTVYLQMNSLKPEDTAVYYCAAYRVNKSSRTMDYWGQGTQVTVSS” here?
A: high polyreactivity

Q: Which “polyreactivity (PSR sort gate)” value does the source give for “QVQLVESGGGLVQAGGSLRLSCAASGSTINFYAMGWYRQAPGKERELVAAIRVSSGSTYYADSVKGRFTISRDNAKNTVYLQMDSLKPEDTAVYYCAAYLKVRSPRDGYDYWGQGTQVTVSS” here?
A: high polyreactivity

Q: With “QVQLVESGGGLVQAGGSLRLSCAASGSTINIYAMGWYRQAPGKERELVAAISGRGGSTYYADSVKGRFTISRDNAKNTVYLQMNSLKPEDTAVYYSAASGYKVGSYRARMYYWGQGTQVTVSS” as the sequence, how does the “polyreactivity (PSR sort gate)” value read?
A: high polyreactivity

Q: With “QVQLVESGGGLVQAGGSLRLSCAASGSTIPLYAMGWYRQAPGKERELVAAISRSGGRTYYADSVKGRFTISRDNAKNTVYLQMNSLKPEDTAVYYCDSAQGSRVDYWGQGTQVTVSS” as the sequence, how does the “polyreactivity (PSR sort gate)” value read?
A: high polyreactivity

Q: For “QVQLVESGGGLVQAGGSLRLSCAASGSTIPPYAMGWYRQAPGNERELVAAITSGGSTYYADSVKGRFTISRDNAKNTVYLQMNSLKPEDTAVYYCAASWDPWEYDYWGQGTQVTVSS”, which “polyreactivity (PSR sort gate)” value is on record?
A: low polyreactivity

Q: With “QVQLVESGGGLVQAGGSLRLSCAASGSTISYYAMGWYIQAPGKERELVAAISQTGGTTYYADSVKGRFTISRDNAKNTVYLQMNSLKPEDTAVYYCNAARPGGHYWGQGTQVTVSS” as the sequence, how does the “polyreactivity (PSR sort gate)” value read?
A: low polyreactivity

Q: For “QVQLVESGGGLVQAGGSLRLSCAASGSTISYYAMGWYRQAPGKERELVAAITWNGGSTYYADSVKGRFTISRDNAKNTVYLQMNSLKPEDTAVYYCAKDTYYYDYDYWGQGTQVTVSS”, which “polyreactivity (PSR sort gate)” value is on record?
A: low polyreactivity

Q: For “QVQLVESGGGLVQAGGSLRLSCAASGSTIVLNDKRCYRQAPGKERELVAAITWSGGSTYYADSVKGRFTISRDNAKNTVYLQMNSLKPEDTAVYYCNVDYYGWPYWYEYDYWGQGTQVTVSS”, which “polyreactivity (PSR sort gate)” value is on record?
A: high polyreactivity

Q: With “QVQLVESGGGLVQAGGSLRLSCAASGSTIVYYAMGWYRQAPGKERELVAAITSDGSTDYADSVKGRFTISRDNAKNTVYLQMNSLKPEDTAVYYCAVVTFYFCTDYYDVDYWGQGTQVTVSS” as the sequence, how does the “polyreactivity (PSR sort gate)” value read?
A: low polyreactivity

Q: Which “polyreactivity (PSR sort gate)” value does the source give for “QVQLVESGGGLVQAGGSLRLSCAASGSTIYAYAMGWYRQAPGKERELVAAIDSGGSTYYADSVKGRFTISRDNAKNTVYLQMNSLKPEDTAVYYCAVRHRYTRAYWGRDYWGQGTQVTVSS” here?
A: low polyreactivity

Q: Which “polyreactivity (PSR sort gate)” value does the source give for “QVQLVESGGGLVQAGGSLRLSCAASGSTIYPNAMGWYRQAPGKERELVARISRTGGSTYADSVKGRFTISRDNAKNTVYLQMNSLIPEDSAVYYCARSYASFSWLRTKEPYEYWGQGTQVTVSS” here?
A: low polyreactivity

Q: With “QVQLVESGGGLVQAGGSLRLSCAASGSTIYPNAMGWYRQAPGKERELVAVISSGGSTYYADSVKGRFTISRDNAKNTVYLLMNSLKPVDTAVYYCAADRGTVSYLYSPRAVDYWGQGTQVTVSS” as the sequence, how does the “polyreactivity (PSR sort gate)” value read?
A: low polyreactivity

Q: With “QVQLVESGGGLVQAGGSLRLSCAASGSTIYPNAMGWYRQAPGQERELVAVISSGGSTYYADSVKGRFTISRDNAKNTVYLQMNSLKPEDTAVYYCAADRGTVSYLYSPRAVDYWGQGTQVTVSS” as the sequence, how does the “polyreactivity (PSR sort gate)” value read?
A: low polyreactivity

Q: With “QVQLVESGGGLVQAGGSLRLSCAASGSTIYWYAMGWYRQAPGKERELVAAITDSGDDTYYADSVKGRFTISRDNAKKTVYLQMNSLKPVDTAVYYCAGEAWSVAPYEYWGQGTQVTVSS” as the sequence, how does the “polyreactivity (PSR sort gate)” value read?
A: low polyreactivity

Q: Which “polyreactivity (PSR sort gate)” value does the source give for “QVQLVESGGGLVQAGGSLRLSCAASGSTIYYAMGWYRQAPGKERELVAAISYSGGSTRYADSVKGRFTISRDNAKNTVYLEMNFLKPEDTSVYYCAAPRKYYYGESPLDYWGQGTQVTVSS” here?
A: high polyreactivity

Q: With “QVQLVESGGGLVQAGGSLRLSCAASGSTIYYNAMGWYRQAPGKERELVARISRSGGSTYADSVKGRFTISRDNAKNTVYLQMNSVKPEDTAVYYCNADAYGTPEFSSYAVRYDYWGQGTQVTVSS” as the sequence, how does the “polyreactivity (PSR sort gate)” value read?
A: low polyreactivity

Q: With “QVQLVESGGGLVQAGGSLRLSCAASGSTIYYYAMGWYRQAPGKERELVASISDDGSTNYADSVKGRFTISRDNAKNTVYLQMNSLKPEDTAVYYCAAVWWHQFGSAWYQMGYWGQGTQVTVSS” as the sequence, how does the “polyreactivity (PSR sort gate)” value read?
A: low polyreactivity

Q: With “QVQLVESGGGLVQAGGSLRLSCAASGSTLAFYAMGWYRQAPGKERELVAAIRRGGSTYYADSVKGRFTISRDNAKNTVYLQMNSLKPEDTAVYYCAARYRRVSYYYWGQGTQVTVSS” as the sequence, how does the “polyreactivity (PSR sort gate)” value read?
A: high polyreactivity

Q: For “QVQLVESGGGLVQAGGSLRLSCAASGSTLAIYAMGCYRQAPGKERELVASISRVGSTNYADSVKGRFTISRDNAKNTVYLQMNSRIPEDTAVYYCAARRWSYVILRAYYYWGQGTQETVSS”, which “polyreactivity (PSR sort gate)” value is on record?
A: high polyreactivity

Q: With “QVQLVESGGGLVQAGGSLRLSCAASGSTLAKYAMGWYRQAPGKERELVAAISRSGGRTYYADSEKGRFTISRDNAKNSVYLQMNSLKPEETAVYYCAARARSSRTYHDDYWGQGTQVTVSS” as the sequence, how does the “polyreactivity (PSR sort gate)” value read?
A: high polyreactivity

Q: With “QVQLVESGGGLVQAGGSLRLSCAASGSTLAPYVKGWYIQAPGTERELVAVISTRTGRTYYADSVKGRFTISRDNAKNTVSLQMNSLKPEDTAVYYCAAAYGWSWYRYDYWGQGTQVTVSS” as the sequence, how does the “polyreactivity (PSR sort gate)” value read?
A: high polyreactivity

Q: For “QVQLVESGGGLVQAGGSLRLSCAASGSTLAVYSMGWYRQAPGKEREFVAAISWSGVSTYYADSVKGRFTISRDNAKNTVYLQMNSLKPEDTAVYYCAAKRVRALYGGSEGGYWGQGTQVTVSS”, which “polyreactivity (PSR sort gate)” value is on record?
A: low polyreactivity

Q: With “QVQLVESGGGLVQAGGSLRLSCAASGSTLDLYAMGWYRQAPGKEREFVASISWSGGSTYYADSVKGRFTISRDNAKNTVYLQMNRLKPEDTAVYYCAADLVIRGSLYVSSWYDYWGQGSQVTVSS” as the sequence, how does the “polyreactivity (PSR sort gate)” value read?
A: low polyreactivity

Q: With “QVQLVESGGGLVQAGGSLRLSCAASGSTLDVYDMGWYRKAPGKEREFVATISFSVGSTDYADSVKGRFTISRDNAKNTVYLQMNSLKPEDTAVYYCAADVSEWSNQYFDSYLRMDYWGQGTQVTVSS” as the sequence, how does the “polyreactivity (PSR sort gate)” value read?
A: low polyreactivity

Q: Which “polyreactivity (PSR sort gate)” value does the source give for “QVQLVESGGGLVQAGGSLRLSCAASGSTLFFNARGWYRQAPGKERELVAGITDGGNTNYADSVKGRFTISRDNAKNTVYLQMNSLKPEDTAVYYCNARYSKKGESQREYDYWGQGTQVTVSS” here?
A: low polyreactivity

Q: With “QVQLVESGGGLVQAGGSLRLSCAASGSTLFNYDMGWYRQAPGKERELVAAFDWGDGTTYYADSVKGRFTISRDNAKNTVYLQMNSLKPEDTAVYYCAAEEFYSPYDYWGQGTQVTVSS” as the sequence, how does the “polyreactivity (PSR sort gate)” value read?
A: high polyreactivity

Q: For “QVQLVESGGGLVQAGGSLRLSCAASGSTLFTYAMGWYRQAPGNERELVAAITSSGSTYYADSVKGRFTISRDNATNTVSLQMKSLKPEDTAVYYCAGPGYRYTNYYYWGQGTQVTVSS”, which “polyreactivity (PSR sort gate)” value is on record?
A: low polyreactivity

Q: For “QVQLVESGGGLVQAGGSLRLSCAASGSTLGINAMGWYRQAPGKERELVAAITWNGGSTYYADSVKGRFTISRDNAKNTVYLQMNSLKPEDTAVYYCAARTYSSRYYRTREGFDYYYWGQGTQVTVSS”, which “polyreactivity (PSR sort gate)” value is on record?
A: high polyreactivity

Q: Which “polyreactivity (PSR sort gate)” value does the source give for “QVQLVESGGGLVQAGGSLRLSCAASGSTLGQYAMGWYRQAPGKERELVAASRRGVRTYYADSVKGRFTISRDNAKNTVYFQMNSLKPEDTAVFYCAARRDVSRPVVGTMGYWGQGSQVTVSS” here?
A: high polyreactivity
